Results on 1 molecule are retold here after US20120137392A1.

This assay has as its target eJMC^Y859A (eJMC mutated in the first amino acid of the YXXΦ sequence) fused to GFP (Arabidopsis thaliana), Q9FL28. Put plainly: cell-based or functional assay.

Chain of eJMC^Y859A (eJMC mutated in the first amino acid of the YXXΦ sequence) fused to GFP (Arabidopsis thaliana), Q9FL28 (Q9FL28 other isoform, or with tags, fused parts or gaps Y859A Y859A): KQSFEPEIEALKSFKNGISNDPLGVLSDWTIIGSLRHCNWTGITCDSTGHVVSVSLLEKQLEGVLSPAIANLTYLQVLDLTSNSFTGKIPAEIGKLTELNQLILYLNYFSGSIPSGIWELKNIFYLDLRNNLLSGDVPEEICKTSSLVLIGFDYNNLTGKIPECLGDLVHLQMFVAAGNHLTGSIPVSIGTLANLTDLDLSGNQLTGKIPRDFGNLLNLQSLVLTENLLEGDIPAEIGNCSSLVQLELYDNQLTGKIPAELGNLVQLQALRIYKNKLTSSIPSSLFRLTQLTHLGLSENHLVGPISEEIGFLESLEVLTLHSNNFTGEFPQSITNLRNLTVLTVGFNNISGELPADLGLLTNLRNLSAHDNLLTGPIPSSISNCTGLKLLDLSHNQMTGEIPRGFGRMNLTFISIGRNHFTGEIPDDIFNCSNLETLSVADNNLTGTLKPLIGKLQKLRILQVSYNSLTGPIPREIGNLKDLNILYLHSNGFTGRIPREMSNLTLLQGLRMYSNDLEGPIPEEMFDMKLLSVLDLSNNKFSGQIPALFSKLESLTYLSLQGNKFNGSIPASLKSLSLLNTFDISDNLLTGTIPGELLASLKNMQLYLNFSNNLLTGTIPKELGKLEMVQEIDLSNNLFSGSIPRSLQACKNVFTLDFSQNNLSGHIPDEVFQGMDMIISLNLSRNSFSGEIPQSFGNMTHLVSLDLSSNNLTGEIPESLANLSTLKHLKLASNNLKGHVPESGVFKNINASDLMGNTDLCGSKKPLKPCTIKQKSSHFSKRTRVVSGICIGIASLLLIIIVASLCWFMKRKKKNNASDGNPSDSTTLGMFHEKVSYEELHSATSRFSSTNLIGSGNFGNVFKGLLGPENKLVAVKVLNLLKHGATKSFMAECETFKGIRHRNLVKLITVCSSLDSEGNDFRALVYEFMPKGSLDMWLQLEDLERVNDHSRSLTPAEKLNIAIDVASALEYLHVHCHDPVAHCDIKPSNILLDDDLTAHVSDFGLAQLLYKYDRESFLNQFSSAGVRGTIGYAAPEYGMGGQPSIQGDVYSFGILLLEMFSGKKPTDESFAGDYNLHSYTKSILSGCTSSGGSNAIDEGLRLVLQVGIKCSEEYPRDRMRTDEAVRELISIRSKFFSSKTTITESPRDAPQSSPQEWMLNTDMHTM

Take QRLSTGSRINSAKDDAAGLQIA [flg22 (peptide derived from bacterial flagellin)]: the ethylene accumulation, agroinfiltrated tobacco leaf explants, against the negative control worked out at 4.8 times.
